According to article PMC2361330 (British Journal of Cancer, 2006):

Molecular target: Vascular endothelial growth factor receptor 1 (human (endogenous in HT29), UniProt P17948 27-1338)
Test: cell-based or functional assay

Chain of Vascular endothelial growth factor receptor 1 (P17948 27-1338): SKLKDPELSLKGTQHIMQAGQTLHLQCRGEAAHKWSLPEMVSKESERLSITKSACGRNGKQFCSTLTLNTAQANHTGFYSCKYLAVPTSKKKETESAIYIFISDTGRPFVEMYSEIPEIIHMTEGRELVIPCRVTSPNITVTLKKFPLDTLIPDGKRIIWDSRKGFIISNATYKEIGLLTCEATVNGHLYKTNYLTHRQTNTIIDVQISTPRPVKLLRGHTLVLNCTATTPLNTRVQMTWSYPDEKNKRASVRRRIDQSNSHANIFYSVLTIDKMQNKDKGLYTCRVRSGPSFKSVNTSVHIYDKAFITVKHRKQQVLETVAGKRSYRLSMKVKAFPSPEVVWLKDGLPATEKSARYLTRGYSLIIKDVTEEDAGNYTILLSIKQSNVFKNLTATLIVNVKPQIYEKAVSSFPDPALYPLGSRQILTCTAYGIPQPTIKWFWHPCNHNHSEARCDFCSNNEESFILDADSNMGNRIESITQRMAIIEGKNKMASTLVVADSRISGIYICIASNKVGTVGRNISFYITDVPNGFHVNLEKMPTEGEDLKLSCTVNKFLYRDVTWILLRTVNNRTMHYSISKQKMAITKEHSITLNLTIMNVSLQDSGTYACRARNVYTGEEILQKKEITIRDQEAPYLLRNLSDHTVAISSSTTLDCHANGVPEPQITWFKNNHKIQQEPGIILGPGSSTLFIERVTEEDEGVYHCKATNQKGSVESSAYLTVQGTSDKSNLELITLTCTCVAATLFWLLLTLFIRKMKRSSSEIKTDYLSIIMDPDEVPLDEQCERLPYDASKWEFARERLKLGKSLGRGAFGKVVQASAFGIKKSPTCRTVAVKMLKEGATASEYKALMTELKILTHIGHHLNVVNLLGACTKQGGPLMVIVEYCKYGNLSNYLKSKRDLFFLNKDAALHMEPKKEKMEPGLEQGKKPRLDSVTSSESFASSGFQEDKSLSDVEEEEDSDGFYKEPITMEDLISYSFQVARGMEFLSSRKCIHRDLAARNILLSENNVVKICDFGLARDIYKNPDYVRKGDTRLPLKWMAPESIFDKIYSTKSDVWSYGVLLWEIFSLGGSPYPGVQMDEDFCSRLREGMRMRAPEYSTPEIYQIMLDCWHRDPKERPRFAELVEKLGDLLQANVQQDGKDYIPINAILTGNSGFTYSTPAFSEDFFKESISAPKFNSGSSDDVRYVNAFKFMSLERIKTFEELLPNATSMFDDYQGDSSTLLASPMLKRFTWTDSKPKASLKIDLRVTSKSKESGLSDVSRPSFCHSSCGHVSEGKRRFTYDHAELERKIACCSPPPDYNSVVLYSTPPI

B1: Yes (enzyme)
chain: not shown
- Yes kinase activity by immune complex kinase assay in HT29 cells treated with VEGF-A (10 ng ml^−1) for 0-15 min: ~2.5 fold
